From patent US20160264674A1 (ADURO BIOTECH HOLDINGS EUROPE B V, published 2016)
Substitutions are numbered along the chain they refer to. Numbers in names are those of the source. Read-outs that look alike come from different tables or passages of the source.

B1: VH14.VL15 (antibody, human IgG4 S228P, kappa, V domains shown)
VH: QVQLVQSGAEVKKPGASVKVSCKASGYTFTSYVMHWVRQAPGQGLEWMGYINPYNDAPKYNEKFKGRVTMTRDTSASTAYMELSSLRSDDTAVYYCARGLGYALYYAMDYWGQGTTVTVSS
VL: DIVMTQSPSTLSASVGDRVTITCKASQNVGNNVAWYQQKPGKAPKLLISSASNRDSGVPSRFSGSGSGTEFTLTISSLQPDDFATYFCQQYNIYPFTFGQGTKLEIKR
notes: Humanized IgG4 (S241P, Kabat) with human kappa, from HEK293T
B2: VH12.VL15 (antibody, human IgG4 S228P, kappa, V domains shown)
VH: B1 VH with A76I, S85R
VL: B1 VL
notes: Humanized IgG4 (S241P, Kabat) with human kappa, from HEK293T; also called 12.15
B3: VH13.VL15 (antibody, human IgG4 S228P, kappa, V domains shown)
VH: B1 VH with A76T, A79V, D89E, T116M
VL: B1 VL
notes: Humanized IgG4 (S241P, Kabat) with human kappa, from HEK293T; also called 13.15
B4: VH14_1G.VL15 (antibody, human IgG4 S228P, kappa, V domains shown)
VH: B1 VH with R67K, V68A, R72S
VL: B1 VL
notes: VH14_1 with R67K and V68A; Humanized IgG4 (S241P, Kabat) with human kappa; also called 14_1G.15; 14_1 G.15

Key:
[1] = molecular target: T1, FLAG-tagged human APRIL (human, UniProt O75888 105-250, limits assumed); test: FLAG-APRIL ELISA after 10 min at 70 °C, antibody at 0.316 µg/ml
T1 construct: also called FLAG-tagged APRIL; FLAG-APRIL; not shown: FLAG tag
T1 sequence (looked up): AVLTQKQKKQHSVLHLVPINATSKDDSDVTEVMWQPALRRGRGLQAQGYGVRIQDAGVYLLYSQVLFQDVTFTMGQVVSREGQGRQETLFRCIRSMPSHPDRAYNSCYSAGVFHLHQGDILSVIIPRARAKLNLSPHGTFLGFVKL
Protocol: (§1) The plasmids encoding the VH and VL constructs were mixed in a 1:3 ratio (4 μg in total) and transiently expressed by transfection into HEK293T human embryonic kidney cells (HEK293T/17, ATCC-CRL-11268), using Lipofectamine 2000 transfection reagent (Invitrogen) following the manufacturer's instructions. Cell supernatants were harvested after 5 days and tested for expression of antibody and binding to APRIL using an enzyme-linked immuno assay (ELISA). In these ELISAs, all incubation steps were followed by a wash step with PBST (PBS with 0.01% Tween 20). Maxisorb 96-wells plates (Nunc) were coated with 0.5 μg/ml anti-FLAG (Sigma) or anti-IgG4 (Jackson laboratories) and incubated overnight at 4° C. Subsequently the anti-FLAG coated 96-wells plates were incubated with FLAG-tagged human APRIL for 1 hour at room temperature. Next, supernatants and dilutions thereof were incubated for 1 hour, which was followed by an incubation of 1 hour with mouse anti-human IgG HRP-conjugate (Southern Biotechnology).
(§2) To determine the effect of humanization on the stability of the antibodies, humanized antibodies were exposed to a range of temperatures for 10 minutes. Purified antibodies were diluted to 3.16 μg/ml and dilutions thereof in PBS. Next, these solutions were exposed to 65° C. or 70° C. and residual binding after heat treatment of the antibodies was measured using the FLAG-tagged APRIL ELISA assay as described before (see Table 6).

[2] = molecular target: T1, FLAG-tagged human APRIL; test: FLAG-APRIL ELISA after 10 min at 70 °C, antibody at 3.16 µg/ml
Protocol: as §1, §2

[3] = molecular target: T1, FLAG-tagged human APRIL; test: FLAG-APRIL ELISA after 10 min at 70 °C, antibody at 1 µg/ml
[4] = molecular target: T1, FLAG-tagged human APRIL; test: FLAG-APRIL ELISA after 10 min at 70 °C, antibody at 0.316 µg/ml; remark: listed apart in the source
[5] = molecular target: T1, FLAG-tagged human APRIL; test: FLAG-APRIL ELISA after 10 min at 65 °C, antibody at 1 µg/ml
Protocol: as §1, §2
(§3) In addition, the stability of the substituted humanized antibodies was improved as determined using thermostability studies as described in Example 3 (see Table 9).

[6] = molecular target: T1, FLAG-tagged human APRIL; test: FLAG-APRIL ELISA after 10 min at 70 °C, antibody at 3.16 µg/ml; remark: listed apart in the source
[7] = molecular target: T1, FLAG-tagged human APRIL; test: FLAG-APRIL ELISA after 10 min at 65 °C, antibody at 3.16 µg/ml
Protocol: as §1, §2, §3

[8] = molecular target: T1, FLAG-tagged human APRIL; test: FLAG-APRIL ELISA after 10 min at 65 °C, antibody at 0.316 µg/ml
Protocol: as §1, §2

[9] = molecular target: T1, FLAG-tagged human APRIL; test: FLAG-APRIL ELISA after 10 min at 70 °C, antibody at 1 µg/ml; remark: listed apart in the source
Protocol: as §1, §2

[10] = molecular target: T1, FLAG-tagged human APRIL; test: FLAG-APRIL ELISA after 10 min at 65 °C, antibody at 0.316 µg/ml; remark: listed apart in the source
Protocol: as §1, §2, §3

[11] = molecular target: T1, FLAG-tagged human APRIL; test: ELISA: FLAG-tagged human APRIL captured on anti-FLAG plate, purified antibody titrated
Protocol: as §1
(§4) A subset of humanized antibodies described above was selected for further analyses. Again, plasmids encoding the VH and VL constructs were mixed in a 1:3 ratio (32 μg) and transiently expressed by transfection into (8*10⁶) HEK293T human embryonic kidney cells (HEK293T), using Lipofectamine 2000 transfection reagent (Invitrogen) according to the manufacturer's instructions. Supernatants were harvested (10 ml) and antibodies were purified using MabSelect Sure Protein A resin according to the manufacturer's instructions (GE Healthcare). Buffer was exchanged for PBS using Zeba desalting columns (Thermo Scientific). The concentration of purified antibodies was determined based on OD280 (Nanodrop ND-1000). The binding of the purified antibodies to APRIL was established using the above described APRIL ELISA. The blocking capability of the humanized antibodies with BCMA and TACI receptors, was tested in a competition ELISA. In these ELISAs, all incubation steps were followed by a wash step with PBST (PBS with 0.01% Tween 20). Maxisorb 96-wells plates (Nunc) were coated with 0.5 μg/ml Fc-BCMA (R&D Systems) or Fc-TACI (R&D Systems) and incubated overnight at 4° C. Next, humanized antibodies and dilutions thereof were incubated, premixed with FLAG-tagged APRIL, for 1 hour, which was followed by an incubation of 1 hour with anti-FLAG HRP-conjugate (Sigma).

[12] = molecular target: T1, FLAG-tagged human APRIL; test: FLAG-APRIL ELISA after 10 min at 65 °C, antibody at 1 µg/ml; remark: listed apart in the source
Protocol: as §1, §2

[13] = molecular target: T1, FLAG-tagged human APRIL; test: FLAG-APRIL ELISA after 10 min at 65 °C, antibody at 3.16 µg/ml; remark: listed apart in the source
Protocol: as §1, §2

[14] = molecular target: T1, FLAG-tagged human APRIL; test: ELISA: FLAG-tagged human APRIL captured on anti-FLAG plate, purified antibody titrated; remark: listed apart in the source
[15] = molecular target: T1, FLAG-tagged human APRIL; test: competition ELISA: antibody premixed with FLAG-tagged APRIL, added to coated Fc-BCMA, anti-FLAG HRP
Protocol: as §4, with “(Sigma). Immunoreactivity was visualized with 100 μl TMB Stabilized Chromagen (Invitrogen). Reactions were stopped with 100 μl 0.5 M H2504 and absorbances were measured at 450 and 620 nm. Calculated EC₅₀ and IC₅₀ representing the concentration at which 50% of the total binding signal or blocking is observed are represented in Table 5.” for “(Sigma).”
The antibodies were tested for binding, blockade, and stability as described before.

| Binder | % residual binding after heat treatment (room temperature = 100%) [1] [%] | % residual binding after heat treatment (room temperature = 100%) [2] [%] | % residual binding after heat treatment (room temperature = 100%) [3] [%] | % residual binding after heat treatment (room temperature = 100%) [4] [%] | % residual binding after heat treatment (room temperature = 100%) [5] [%] | % residual binding after heat treatment (room temperature = 100%) [6] [%] | % residual binding after heat treatment (room temperature = 100%) [7] [%] | % residual binding after heat treatment (room temperature = 100%) [8] [%] | % residual binding after heat treatment (room temperature = 100%) [9] [%] | % residual binding after heat treatment (room temperature = 100%) [10] [%] | EC50 [11] [nM] | % residual binding after heat treatment (room temperature = 100%) [12] [%] | % residual binding after heat treatment (room temperature = 100%) [13] [%] | EC50 [14] [nM] | IC50 [15] [nM] |
| --- | --- | --- | --- | --- | --- | --- | --- | --- | --- | --- | --- | --- | --- | --- | --- |
| B1 | 63.1 | 50 | 55.1 | 79.1 | 47.5 | 58.6 | 59 | 63.7 | 42.5 | 67.5 | 48.3 | 45.2 | 58.6 |  |  |
| B2 | 70.3 | 50.2 |  |  |  |  |  | 74.3 | 51.8 |  | 19.8 | 49.8 | 66.4 |  |  |
| B3 | 65 | 80.5 |  |  |  |  |  | 66.1 | 47.4 |  | 223 | 44.4 | 76.2 |  |  |
| B4 |  |  | 16.9 | 23.8 | 31.3 | 78.2 | 94.5 |  |  | 34.2 |  |  |  | 0.78 | 1.35 |
